Where a chain is given by its changes, count along the chain named. Each block holds one binder with its values, some of them ahead of it.
Target: T1, Full-length human CTGF (human, UniProt P29279 27-349)
T1 construct: Corresponds to NCBI NP_001892.1 with the signal peptide omitted; purchased from R&D Systems; also called hCTGF full length; full length CTGF
T1 sequence: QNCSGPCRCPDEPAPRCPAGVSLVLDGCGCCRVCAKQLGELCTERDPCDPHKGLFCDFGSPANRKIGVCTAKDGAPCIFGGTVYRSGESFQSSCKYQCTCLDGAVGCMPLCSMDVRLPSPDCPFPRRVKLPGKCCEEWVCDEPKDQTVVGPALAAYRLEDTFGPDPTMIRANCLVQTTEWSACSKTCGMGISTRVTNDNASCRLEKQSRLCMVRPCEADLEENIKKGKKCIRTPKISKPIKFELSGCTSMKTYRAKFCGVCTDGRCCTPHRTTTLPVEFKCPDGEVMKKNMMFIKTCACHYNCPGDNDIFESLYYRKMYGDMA
Assay: SPR, full length CTGF

Kd: 210 pM
B1: A22 (antibody, human IgG1, kappa, L234A L235A, V domains shown)
VH: EVQLVESGGGLVQPGGSLRLSCAASGFTFSDYYMAWVRQAPGKGLEWVANINYEGSRTDLLDSLKSRFTISRDNAKNSVYLQMNSLRAEDTAVYYCARDTSRGSYFDVWGAGTTVTVSS
VL: VVMTQTPLSLSVSLGDQASISCKSSQSIVHYNGKTYLEWYLQKPGQSPQLLIYKVSSRFSGVPDRFSGSGSGTDFTLKISRVEAEDLGVYYCFQGSHFPLTFGQGTKLEIKR

Kd: 260 pM
B5: A50 (antibody, human IgG1, kappa, L234A L235A, V domains shown)
VH: B1 VH with E54Y, D62E
VL: B1 VL with S11P, K23R, G33E, K34N, S57N

Kd: 160 pM
B7: A44 (antibody, human IgG1, kappa, L234A L235A, V domains shown)
VH: B1 VH with E54Y, D62A
VL: B1 VL with G33E, K34N, F59A

binding result: no binding
B11: A45 (antibody, human IgG1, kappa, L234A L235A)
light: VVMTQTPLSLSVSLGDQASISCKSSQSIVHYNENTYLEWYLQKPGQSPQLLIYKVSSRASGVPDRFSGSGSGTDFTLKISRVEAEDLGVYYCFQGSHFPLTFGQGTKLEIKRTVAAPSVFIFPPSDEQLKSGTASVVCLLNNFYPREAKVQWKVDNALQSGNSQESVTEQDSKDSTYSLSSTLTLSKADYEKHKVYACEVTHQGLSSPVTKSFNRGEC
heavy: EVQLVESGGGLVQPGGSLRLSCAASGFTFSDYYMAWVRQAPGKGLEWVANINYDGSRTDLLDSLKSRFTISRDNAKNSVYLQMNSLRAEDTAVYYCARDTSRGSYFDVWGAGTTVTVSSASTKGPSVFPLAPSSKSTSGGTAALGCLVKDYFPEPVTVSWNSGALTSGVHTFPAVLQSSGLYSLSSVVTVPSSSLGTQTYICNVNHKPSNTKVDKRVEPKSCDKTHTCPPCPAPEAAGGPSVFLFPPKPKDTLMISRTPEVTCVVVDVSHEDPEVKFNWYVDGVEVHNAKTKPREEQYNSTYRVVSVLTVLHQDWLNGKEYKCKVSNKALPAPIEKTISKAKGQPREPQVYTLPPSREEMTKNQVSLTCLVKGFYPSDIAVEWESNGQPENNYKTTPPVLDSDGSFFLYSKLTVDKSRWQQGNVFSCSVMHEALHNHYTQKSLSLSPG

Kd: 340 pM
B12: A63 (antibody, human IgG1, kappa, L234A L235A, V domains shown)
VH: B1 VH with E54D, D62E
VL: B1 VL with S11P, K23R, G33A, K34N, S57N

binding result: no binding
B14: A36 (antibody, human IgG1, kappa, L234A L235A, V domains shown)
VH: B1 VH with E54Y, D62A
VL: B1 VL with G33E, K34N

Kd: 230 pM
B16: A48 (antibody, human IgG1, kappa, L234A L235A)
light: B11 light
heavy: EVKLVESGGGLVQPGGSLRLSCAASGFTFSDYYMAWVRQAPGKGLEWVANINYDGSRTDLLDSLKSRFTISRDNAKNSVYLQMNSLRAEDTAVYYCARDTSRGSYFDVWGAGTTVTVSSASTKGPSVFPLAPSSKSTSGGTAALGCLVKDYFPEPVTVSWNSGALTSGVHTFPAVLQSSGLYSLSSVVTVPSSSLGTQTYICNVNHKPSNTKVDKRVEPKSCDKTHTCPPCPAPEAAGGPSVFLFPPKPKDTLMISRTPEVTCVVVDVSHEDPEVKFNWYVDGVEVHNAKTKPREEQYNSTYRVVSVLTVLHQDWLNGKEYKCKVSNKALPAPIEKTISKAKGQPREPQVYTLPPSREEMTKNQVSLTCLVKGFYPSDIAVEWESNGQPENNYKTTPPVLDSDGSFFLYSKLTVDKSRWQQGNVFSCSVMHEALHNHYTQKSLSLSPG

binding result: no binding
B19: A47 (antibody, human IgG1, kappa, L234A L235A, V domains shown)
VH: B1 VH with E54D, D62E
VL: B1 VL with G33E, K34N, F59A

Kd: 270 pM
B22: A52 (antibody, human IgG1, kappa, L234A L235A, V domains shown)
VH: B1 VH with E54Y, D62A
VL: B1 VL with S11P, K23R, G33E, K34N, S57N

Kd: 300 pM
B25: A58 (antibody, human IgG1, kappa, L234A L235A, V domains shown)
VH: B1 VH with E54Y, D62E
VL: B1 VL with S11P, K23R, G33A, K34N, S57N

binding result: no binding
B30: A37 (antibody, human IgG1, kappa, L234A L235A, V domains shown)
VH: B1 VH with E54D
VL: B1 VL with G33E, K34N

Kd: 190 pM
B31: A41 (antibody, human IgG1, kappa, L234A L235A, V domains shown)
VH: B1 VH with D62E
VL: B1 VL with G33E, K34N, F59A

The remaining lines, values behind:

B2: A46 (antibody, human IgG1, kappa, L234A L235A, V domains shown)
VH: B1 VH
VL: B1 VL with G33E, K34N, F59A
Kd: 200 pM

B3: A25 (antibody, human IgG1, kappa, L234A L235A, V domains shown)
VH: B1 VH with D62E
VL: B1 VL with F59A
Kd: 150 pM

B4: A56 (antibody, human IgG1, kappa, L234A L235A)
light: B11 light with S11P, K23R, S57N, A59F
heavy: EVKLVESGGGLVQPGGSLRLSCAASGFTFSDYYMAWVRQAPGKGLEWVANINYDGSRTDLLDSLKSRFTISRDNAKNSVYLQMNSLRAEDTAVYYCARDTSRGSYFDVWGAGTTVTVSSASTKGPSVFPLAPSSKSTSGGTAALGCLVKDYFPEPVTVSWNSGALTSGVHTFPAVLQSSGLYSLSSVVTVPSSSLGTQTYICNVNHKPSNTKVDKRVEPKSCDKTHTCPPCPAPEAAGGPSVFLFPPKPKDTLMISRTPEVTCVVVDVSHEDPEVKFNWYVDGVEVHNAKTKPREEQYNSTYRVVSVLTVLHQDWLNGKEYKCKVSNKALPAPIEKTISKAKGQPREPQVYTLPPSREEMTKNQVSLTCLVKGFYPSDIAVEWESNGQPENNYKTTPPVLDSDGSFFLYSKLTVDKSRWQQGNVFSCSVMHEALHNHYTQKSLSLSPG
Kd: 310 pM

B6: A62 (antibody, human IgG1, kappa, L234A L235A, V domains shown)
VH: B1 VH
VL: B1 VL with S11P, K23R, G33A, K34N, S57N
Kd: 350 pM

B8: A59 (antibody, human IgG1, kappa, L234A L235A, V domains shown)
VH: B1 VH with D62A
VL: B1 VL with S11P, K23R, G33A, K34N, S57N
Kd: 270 pM

B9: A55 (antibody, human IgG1, kappa, L234A L235A, V domains shown)
VH: B1 VH with E54D, D62E
VL: B1 VL with S11P, K23R, G33E, K34N, S57N
Kd: 350 pM

B10: A60 (antibody, human IgG1, kappa, L234A L235A, V domains shown)
VH: B1 VH with E54Y, D62A
VL: B1 VL with S11P, K23R, G33A, K34N, S57N
Kd: 300 pM

B13: A42 (antibody, human IgG1, kappa, L234A L235A, V domains shown)
VH: B1 VH with E54Y, D62E
VL: B1 VL with G33E, K34N, F59A
Kd: 150 pM

B15: A23 (antibody, human IgG1, kappa, L234A L235A, V domains shown)
VH: B1 VH with E54D, D62E
VL: B1 VL
Kd: 230 pM

B17: A57 (antibody, human IgG1, kappa, L234A L235A, V domains shown)
VH: B1 VH with D62E
VL: B1 VL with S11P, K23R, G33A, K34N, S57N
Kd: 350 pM

B18: A24 (antibody, human IgG1, kappa, L234A L235A)
light: B11 light with E33G, N34K, A59F
heavy: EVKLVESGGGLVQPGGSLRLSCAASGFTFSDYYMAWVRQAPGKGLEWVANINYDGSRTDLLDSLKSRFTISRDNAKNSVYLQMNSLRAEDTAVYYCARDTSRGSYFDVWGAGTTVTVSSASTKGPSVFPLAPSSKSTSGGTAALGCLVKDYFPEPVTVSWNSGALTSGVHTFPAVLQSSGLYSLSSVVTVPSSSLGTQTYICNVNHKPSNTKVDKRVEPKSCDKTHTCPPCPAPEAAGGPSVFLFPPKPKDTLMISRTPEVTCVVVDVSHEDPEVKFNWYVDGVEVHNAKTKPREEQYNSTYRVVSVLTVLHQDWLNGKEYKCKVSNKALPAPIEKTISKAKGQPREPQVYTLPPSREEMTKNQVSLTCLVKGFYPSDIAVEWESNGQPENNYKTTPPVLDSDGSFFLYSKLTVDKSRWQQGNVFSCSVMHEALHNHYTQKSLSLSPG
Kd: 230 pM

B20: A34 (antibody, human IgG1, kappa, L234A L235A, V domains shown)
VH: B1 VH with E54Y, D62E
VL: B1 VL with G33E, K34N
binding result: no binding

B21: A51 (antibody, human IgG1, kappa, L234A L235A, V domains shown)
VH: B1 VH with D62A
VL: B1 VL with S11P, K23R, G33E, K34N, S57N
Kd: 250 pM

B23: A61 (antibody, human IgG1, kappa, L234A L235A)
light: B11 light with S11P, K23R, E33A, S57N, A59F
heavy: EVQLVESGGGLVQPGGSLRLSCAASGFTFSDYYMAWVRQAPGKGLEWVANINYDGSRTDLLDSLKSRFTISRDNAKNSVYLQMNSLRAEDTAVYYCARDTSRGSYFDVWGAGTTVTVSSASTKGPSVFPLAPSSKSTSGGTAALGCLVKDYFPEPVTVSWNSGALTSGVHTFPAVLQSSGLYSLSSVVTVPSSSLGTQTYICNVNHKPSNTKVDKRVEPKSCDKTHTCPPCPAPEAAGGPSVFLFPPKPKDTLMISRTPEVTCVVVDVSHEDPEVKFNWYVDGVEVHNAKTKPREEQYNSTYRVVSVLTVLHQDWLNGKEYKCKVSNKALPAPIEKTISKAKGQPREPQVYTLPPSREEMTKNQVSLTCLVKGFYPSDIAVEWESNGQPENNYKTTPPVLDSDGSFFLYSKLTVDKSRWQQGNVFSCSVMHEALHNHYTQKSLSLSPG
Kd: 350 pM

B24: A53 (antibody, human IgG1, kappa, L234A L235A)
light: B11 light with S11P, K23R, S57N, A59F
heavy: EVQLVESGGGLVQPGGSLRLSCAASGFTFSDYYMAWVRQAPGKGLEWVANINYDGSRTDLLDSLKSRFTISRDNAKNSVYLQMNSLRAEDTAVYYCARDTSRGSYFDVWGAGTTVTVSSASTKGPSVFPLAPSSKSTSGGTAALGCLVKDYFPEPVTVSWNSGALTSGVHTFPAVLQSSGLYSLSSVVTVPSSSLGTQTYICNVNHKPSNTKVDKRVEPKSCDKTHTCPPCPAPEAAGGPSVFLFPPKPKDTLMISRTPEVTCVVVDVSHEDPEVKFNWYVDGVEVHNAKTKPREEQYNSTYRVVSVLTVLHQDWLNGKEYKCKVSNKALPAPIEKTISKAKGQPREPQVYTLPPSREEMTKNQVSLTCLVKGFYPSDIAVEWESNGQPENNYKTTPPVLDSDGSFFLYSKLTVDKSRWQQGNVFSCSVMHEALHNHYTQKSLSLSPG
Kd: 360 pM

B26: A49 (antibody, human IgG1, kappa, L234A L235A, V domains shown)
VH: B1 VH with D62E
VL: B1 VL with S11P, K23R, G33E, K34N, S57N
Kd: 300 pM

B27: A54 (antibody, human IgG1, kappa, L234A L235A, V domains shown)
VH: B1 VH
VL: B1 VL with S11P, K23R, G33E, K34N, S57N
Kd: 310 pM

B28: A35 (antibody, human IgG1, kappa, L234A L235A, V domains shown)
VH: B1 VH with D62A
VL: B1 VL with G33E, K34N
binding result: no binding

B29: A43 (antibody, human IgG1, kappa, L234A L235A, V domains shown)
VH: B1 VH with D62A
VL: B1 VL with G33E, K34N, F59A
Kd: 150 pM
